Data on 3 molecules can be found in patent US20230357348A1 (AstraZeneca / MedImmune, published 2023).

Test [1] deals with human glucagon receptor (hGCGR) (human, UniProt P47871 26-477). Description: cell-based or functional assay.
Test [2] addresses human GLP-1 receptor (hGLP-1R) (human, UniProt P43220 24-463). Description: cell-based or functional assay.

Starred links: 1 amine or outer side, 2 acyl side, 3 side chain; linkers in the order of their positions; H or OH if unused. Non-standard residues stand in square brackets, D forms with d. Groups on a side chain read outwards from the residue. No end group written: not given here. *: point of attachment. C20 diacid = O=C(O)CCCCCCCCCCCCCCCCCCC(=O)*; C18 diacid = O=C(O)CCCCCCCCCCCCCCCCC(=O)*; γGlu = O=C(O)[C@H](CCC(=O)[*:2])N[*:1]; αMeF = C[C@](N)(Cc1ccccc1)C(=O)O; AEEA = NCCOCCOCC(=O)O; Aib = CC(C)(N)C(=O)O

Sequence of human glucagon receptor (hGCGR) (P47871 26-477): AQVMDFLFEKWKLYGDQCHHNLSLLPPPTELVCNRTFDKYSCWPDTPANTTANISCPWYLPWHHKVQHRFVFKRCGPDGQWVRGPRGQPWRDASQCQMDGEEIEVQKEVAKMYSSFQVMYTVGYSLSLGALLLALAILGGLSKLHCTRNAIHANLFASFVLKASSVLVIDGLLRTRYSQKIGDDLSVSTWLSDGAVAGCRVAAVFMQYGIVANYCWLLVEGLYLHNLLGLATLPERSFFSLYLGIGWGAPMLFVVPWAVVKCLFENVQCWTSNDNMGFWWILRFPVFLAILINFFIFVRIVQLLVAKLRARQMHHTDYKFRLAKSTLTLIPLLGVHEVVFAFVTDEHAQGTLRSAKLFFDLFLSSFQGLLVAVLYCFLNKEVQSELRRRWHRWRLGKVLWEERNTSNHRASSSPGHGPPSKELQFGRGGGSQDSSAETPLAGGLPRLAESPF

B1: Peptide 438 (peptide)
peptide: H[Aib]QGTFTSDVSK[αMeF]LDKK([AEEA-AEEA-γGlu-C18 diacid])RAQDFVRWLEA[Aib]G-NH2
modifications: N-terminus assumed
SMILES: CC(C)C[C@H](NC(=O)[C@H](Cc1c[nH]c2ccccc12)NC(=O)[C@H](CCCNC(=N)N)NC(=O)[C@@H](NC(=O)[C@H](Cc1ccccc1)NC(=O)[C@H](CC(=O)O)NC(=O)[C@H](CCC(N)=O)NC(=O)[C@H](C)NC(=O)[C@H](CCCNC(=N)N)NC(=O)[C@H](CCCCNC(=O)COCCOCCNC(=O)COCCOCCNC(=O)CC[C@H](NC(=O)CCCCCCCCCCCCCCCCC(=O)O)C(=O)O)NC(=O)[C@H](CCCCN)NC(=O)[C@H](CC(=O)O)NC(=O)[C@H](CC(C)C)NC(=O)[C@](C)(Cc1ccccc1)NC(=O)[C@H](CCCCN)NC(=O)[C@H](CO)NC(=O)[C@@H](NC(=O)[C@H](CC(=O)O)NC(=O)[C@H](CO)NC(=O)[C@@H](NC(=O)[C@H](Cc1ccccc1)NC(=O)[C@@H](NC(=O)CNC(=O)[C@H](CCC(N)=O)NC(=O)C(C)(C)NC(=O)[C@@H](N)Cc1c[nH]cn1)[C@@H](C)O)[C@@H](C)O)C(C)C)C(C)C)C(=O)N[C@@H](CCC(=O)O)C(=O)N[C@@H](C)C(=O)NC(C)(C)C(=O)NCC(N)=O
Turning to B1, the “hGluc-R EC50 (pM)” value in test [1] is 68.9 pM. The “hGLP-1R EC50 (pM)” value in test [2] is 17.9 pM.

B2: Peptide 439 (peptide)
peptide: H[Aib]QGTFTSDVSK[αMeF]LDRK([AEEA-AEEA-γGlu-C18 diacid])RAQDFVRWLL[Aib]E-NH2
modifications: N-terminus assumed
SMILES: CC(C)C[C@H](NC(=O)[C@H](Cc1c[nH]c2ccccc12)NC(=O)[C@H](CCCNC(=N)N)NC(=O)[C@@H](NC(=O)[C@H](Cc1ccccc1)NC(=O)[C@H](CC(=O)O)NC(=O)[C@H](CCC(N)=O)NC(=O)[C@H](C)NC(=O)[C@H](CCCNC(=N)N)NC(=O)[C@H](CCCCNC(=O)COCCOCCNC(=O)COCCOCCNC(=O)CC[C@H](NC(=O)CCCCCCCCCCCCCCCCC(=O)O)C(=O)O)NC(=O)[C@H](CCCNC(=N)N)NC(=O)[C@H](CC(=O)O)NC(=O)[C@H](CC(C)C)NC(=O)[C@](C)(Cc1ccccc1)NC(=O)[C@H](CCCCN)NC(=O)[C@H](CO)NC(=O)[C@@H](NC(=O)[C@H](CC(=O)O)NC(=O)[C@H](CO)NC(=O)[C@@H](NC(=O)[C@H](Cc1ccccc1)NC(=O)[C@@H](NC(=O)CNC(=O)[C@H](CCC(N)=O)NC(=O)C(C)(C)NC(=O)[C@@H](N)Cc1c[nH]cn1)[C@@H](C)O)[C@@H](C)O)C(C)C)C(C)C)C(=O)N[C@@H](CC(C)C)C(=O)NC(C)(C)C(=O)N[C@@H](CCC(=O)O)C(N)=O
Consider B2, for which the “hGluc-R EC50 (pM)” value in test [1] was determined as 57.7 pM. Moreover, in test [2], the “hGLP-1R EC50 (pM)” value turned out to be 30.6 pM.

B3: Peptide 440 (peptide)
peptide: H[Aib]QGTFTSDVSK[αMeF]LDKK([AEEA-AEEA-γGlu-C20 diacid])RARDFVRWLL[Aib]E-OH
modifications: N-terminus assumed
SMILES: CC(C)C[C@H](NC(=O)[C@H](Cc1c[nH]c2ccccc12)NC(=O)[C@H](CCCNC(=N)N)NC(=O)[C@@H](NC(=O)[C@H](Cc1ccccc1)NC(=O)[C@H](CC(=O)O)NC(=O)[C@H](CCCNC(=N)N)NC(=O)[C@H](C)NC(=O)[C@H](CCCNC(=N)N)NC(=O)[C@H](CCCCNC(=O)COCCOCCNC(=O)COCCOCCNC(=O)CC[C@H](NC(=O)CCCCCCCCCCCCCCCCCCC(=O)O)C(=O)O)NC(=O)[C@H](CCCCN)NC(=O)[C@H](CC(=O)O)NC(=O)[C@H](CC(C)C)NC(=O)[C@](C)(Cc1ccccc1)NC(=O)[C@H](CCCCN)NC(=O)[C@H](CO)NC(=O)[C@@H](NC(=O)[C@H](CC(=O)O)NC(=O)[C@H](CO)NC(=O)[C@@H](NC(=O)[C@H](Cc1ccccc1)NC(=O)[C@@H](NC(=O)CNC(=O)[C@H](CCC(N)=O)NC(=O)C(C)(C)NC(=O)[C@@H](N)Cc1c[nH]cn1)[C@@H](C)O)[C@@H](C)O)C(C)C)C(C)C)C(=O)N[C@@H](CC(C)C)C(=O)NC(C)(C)C(=O)N[C@@H](CCC(=O)O)C(=O)O
Turning to B3, in test [1], the “hGluc-R EC50 (pM)” value worked out at 81 pM. Besides, in test [2], the “hGLP-1R EC50 (pM)” value came to 154 pM.
